± gives the half width of the 95% confidence interval.
How the values were obtained:
[1] = folding stability dG unfold from chymotrypsin proteolysis; higher = more stable
Method in brief: (§1)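 Designed mini-proteins with no cysteine and under 80 residues were kept only if AlphaFold2 dimer inter-PAE was above 15. In a PA-tagged cDNA display construct, they were digested with trypsin and chymotrypsin and then sequenced. K50 was inferred by Bayesian fitting of counts, and unfolding free energy was derived per protease or combined against a sequence-predicted unfolded-state K50 and a shared folded-state K50.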

[2] = folding stability dG unfold (combined trypsin and chymotrypsin); higher = more stable
Method in brief: as §1

[3] = folding stability dG unfold from trypsin proteolysis; higher = more stable
Method in brief: as §1

Sequence | folding stability dG unfold [1] [kcal/mol] | folding stability dG unfold [2] [kcal/mol] | folding stability dG unfold [3] [kcal/mol]
SAGGSAGGSAKPKVKIKIEVTVNEDGTVTVRAEIEVNGKKYTIEVKIKIKAPKPEKVKLFKKSAGGSAGGSA [r18_507_TrROS_Hall] | -0.2 ± 0.84 | 0.497 ± 0.48 | 0.919 ± 0.066
SAGGSAGGSAKSFWIDSPEQAEELADELQQKGPNVEPTVERDDNNGWYQLEIPNGKDIVIWGSAGGSAGGSA [r18_154_TrROS] | 0.73 ± 0.19 | 0.272 ± 0.24 | -0.417 ± 0.2
SAGGSAGGSAKTIKVLVRDKETGEVFEVEAEIVEFDEETGELLIKVRLPNGKTLTLSAEELLSAGGSAGGSA [r18_334_TrROS_Hall] | 4.12 ± 0.1 | 3.71 ± 0.21 | 2.54 ± 0.098
SAGGSAGGSAKTLTLTTPNGDKVEVKLYELPDDFVLAEIKVLATGEKFYALLTKDGTVYLASAGGSAGGSAG [r3_15_TrMRF] | 3.49 ± 0.15 | 3.06 ± 0.13 | 2.47 ± 0.084
SAGGSAGGSAKTVTLTIEITNEDGKKFTAKIEVTYDEETGEFTVRIEIFDKNGKLIAEFPLSAGGSAGGSAG [r3_154_TrROS_Hall] | 5.1 ± 0.1 | 4.98 ± 0.2 | 3.72 ± 0.17
SAGGSAGGSAKVEPVGVDPKNLVVVYRFENFTVAVTYDPESGKVTVRITDPDGNVLEFELSSAGGSAGGSAG [r3_25_TrMRF] | 4.112 ± 0.041 | 3.71 ± 0.086 | 2.24 ± 0.077
SAGGSAGGSAKVILLPSPDDSVVLITVHPDDTVEVTVLRLNPEDPTYEPVTVTVPLSYPELFSAGGSAGGSA [r18_503_TrMRF] | 0.791 ± 0.19 | 0.843 ± 0.18 | 0.903 ± 0.044
SAGGSAGGSAKYKPIGELEFEFENGIRLRVTFYEGEGEKIAIVEIEIPEPSLEEAIKILESSAGGSAGGSAG [r3_158_TrMRF] | 2.79 ± 0.037 | 2.56 ± 0.09 | 2.14 ± 0.095
SAGGSAGGSALDPSAPYVVLIDIDIEPEKAEVEKIPGIPKYIVKKIDLKITIKIEIVSAKDASAGGSAGGSA [r18_137_TrMRF] | 3.14 ± 0.087 | 2.84 ± 0.08 | 2.28 ± 0.17
SAGGSAGGSALELIKEIAEEHNIPVDIEPTGNKIRVEIEMPNPDGQPVKHTIEIPIPPDENQSAGGSAGGSA [r18_27_TrROS] | 1.08 ± 0.078 | 0.975 ± 0.2 | 0.389 ± 0.11
SAGGSAGGSALLEALKALPPNATLTLVTVETRTETVTDADGSTHTRTTTRVTVTTITIRPEDLSAGGSAGGS [r12_805_TrROS_Hall] | 3.67 ± 0.089 | 3.18 ± 0.12 | 2.27 ± 0.12
SAGGSAGGSALPDLEFPFELVEEVEVPVYDPLSDEVLGTVRVWKVRVPGGPELTLVEFDPESAGGSAGGSAG [r3_166_TrMRF] | 1.3 ± 0.047 | 1.35 ± 0.061 | 1.27 ± 0.017
SAGGSAGGSALVVRLENGKEILIEGMSEEEIKELLDKLLPPEEKKNLKIVKVEVFEVEKPESAGGSAGGSAG [r3_340_TrROS_Hall] | 1.14 ± 0.096 | 1.29 ± 0.18 | 1.62 ± 0.1
SAGGSAGGSAMDVFTAALNNKELEEAIKKASPDEKEIEIELPGGKKIRIFRTDDGGYIFEPSAGGSAGGSAG [r3_124_TrMRF] | 1.32 ± 0.11 | 1.52 ± 0.11 | 1.8 ± 0.055
SAGGSAGGSAMETVYIPKEEVEKDPEKLEEIKEKLKKELEEKGKKVEFKEDPNGGYTITVESAGGSAGGSAG [r3_75_JUSTAS] | 0.855 ± 0.029 | 0.663 ± 0.13 | 0.343 ± 0.054
SAGGSAGGSAMETYEIEVNGKLITITRSEDGTYKITDKDTGKTITIPAEDLKKLKPGDKLLSAGGSAGGSAG [r3_256_TrROS_Hall] | 2.18 ± 0.036 | 2.15 ± 0.14 | 1.79 ± 0.078
SAGGSAGGSAMFPDNTTVIEKEVPSSDVESAIEEIKKEYGVENYEVTTEPRPGTVKITVTIKPSAGGSAGGS [r12_929_JUSTAS] | 1.34 ± 0.038 | 1.53 ± 0.093 | 1.65 ± 0.064
SAGGSAGGSAMIEDPATGRVYELDPSVPTVTVYEKTEGEGGEVVEKGVVEADPANPEKALLESAGGSAGGSA [r18_448_JUSTAS] | 0.826 ± 0.073 | 0.716 ± 0.069 | 0.45 ± 0.048
SAGGSAGGSAMIGGGEDGNLVFLVTEDGKPLVLVAPPDEIKKILEELGIKDVVVVKPLPELSAGGSAGGSAG [r3_141_TrMRF] | -0.0844 ± 0.13 | 0.762 ± 0.1 | 1.18 ± 0.043
SAGGSAGGSAMITYTAPGGTPVTVTPDPVTGTLSATFPDGSVITAPVVGDTIPVTVVPPAAVSAGGSAGGSA [r18_405_JUSTAS] | -0.295 ± 0.11 | 0.851 ± 0.042 | 1.37 ± 0.023
SAGGSAGGSAMKEIKIELTYEDEEEAEKKAKEEKEKIKKELEEKGIKVEKITVEIHPPYHHSAGGSAGGSAG [r3_463_JUSTAS] | 1.12 ± 0.067 | 0.796 ± 0.14 | -0.647 ± 0.095
